Measurements: US20180362926

What was measured:
Test in all cases: cell_activity
[1] = test system: SBS68815 ZFN Qm5 in F1,F3,F5; FokI R416E; conditions: 55266-2A-68815, T cells, 12 ug mRNA
[2] = test system: SBS68879 ZFN Qm5 in F1,F3,F5; FokI K525S; conditions: 55266-2A-68879, T cells, 12 ug mRNA
SBS53810 ZFN = conditions: pair 53810:55255, K562, 500 ng/ZFN
SBS55254 ZFN = conditions: pair 55248:55254, K562, 500 ng/ZFN
SBS55255 ZFN = conditions: pair 53810:55255, K562, 500 ng/ZFN
SBS55260 ZFN = conditions: pair 55248:55260, K562, 500 ng/ZFN
[3] = test system: SBS68796 ZFN Qm5 in F1,F3 (nQm5s [sic]),F4; conditions: 68796-2A-68813, T cells, 12 ug mRNA; off-target at background
[4] = test system: SBS68812 ZFN Qm5 in F1,F3 (nQm5s [sic]),F4; FokI R416E; conditions: 68812-2A-68813, T cells, 12 ug mRNA
[5] = test system: SBS68876 ZFN Qm5 in F1,F3 (nQm5s [sic]),F4; FokI K525S; conditions: 68876-2A-68877, T cells, 12 ug mRNA
SBS53785 ZFN = conditions: pair 55229:53785, K562, 500 ng/ZFN
SBS55229 ZFN = conditions: pair 55229:53785, K562, 500 ng/ZFN
SBS57531 ZFN = conditions: pair 72732/57531, background corrected
SBS68957 ZFN FokI K525S = conditions: pair 57071/68957, background corrected
SBS57071 ZFN = conditions: pair 57071/68957, background corrected
SBS72748 ZFN FokI Q481D = conditions: pair 72748/68957, background corrected
SBS53759 ZFN = conditions: pair 55204:53759, K562, 500 ng/ZFN
SBS52742 ZFN = conditions: pair 52774:52742, K562, 500 ng/ZFN
SBS53909 ZFN = conditions: pair 53885:53909, K562, 500 ng/ZFN
SBS53863 ZFN = conditions: pair 53860:53863, K562, 500 ng/ZFN
SBS55287 ZFN = conditions: pair 53856:55287, K562, 500 ng/ZFN
SBS55204 ZFN = conditions: pair 55204:53759, K562, 500 ng/ZFN

Sequence: AACAGGTAAGACAGGGGTCTAGCCTGGG (double strand) [TCRA site E right]
- activity [1]: 97.6 % indels
- activity [2]: 96.3 % indels

Sequence: AGGATTCGGAACCCAATCACTG (double strand) [TCRA site of 53810]
- activity (SBS53810 ZFN): 91.5 % NHEJ

Sequence: CTCCTGAAAGTGGCCGGGTTTAATCTGC (double strand) [TCRA site D left]
- activity (SBS55254 ZFN): 96.2 % NHEJ
- activity (SBS55255 ZFN): 91.5 % NHEJ
- activity (SBS55260 ZFN): 93 % NHEJ
- activity [3]: 99.3 % indels
- activity [4]: 99.9 % indels
- activity [5]: 99.2 % indels

Sequence: CTGTGGCCTGGAGCAACAAATCTGACTT (double strand) [TCRA site of 53785]
- activity (SBS53785 ZFN): 93.6 % NHEJ

Sequence: CTGTTGCTCTTGAAGTCCATAGACCTCA (double strand) [TCRA site of 55229]
- activity (SBS55229 ZFN): 93.6 % NHEJ

Sequence: GAGTAGCGCGAGCACAGCTAAGGCCACG (double strand) [B2M site of 57531]
- activity (SBS57531 ZFN): 95.8 % indels
- activity (SBS68957 ZFN FokI K525S): 91.6 % indels

Sequence: GCCACGGAGCGAGACATCTCGGCCCGAA (double strand) [B2M site of 57071]
- activity (SBS57071 ZFN): 91.6 % indels
- activity (SBS72748 ZFN FokI Q481D): 93.4 % indels

Sequence: GTGCTGTGGCCTGGAGCAACAAATCTGA (double strand) [TCRA site of 53759]
- activity (SBS53759 ZFN): 87.7 % NHEJ

Sequence: TCCTCCTGAAAGTGGCCGGGTTTAATCT (double strand) [TCRA site G right]
- activity (SBS52742 ZFN): 84.4 % NHEJ
- activity (SBS53909 ZFN): 90.2 % NHEJ

Sequence: TTCAAGAGCAACAGTGCTGTGGCCTGGA (double strand) [TCRA site F right]
- activity (SBS53863 ZFN): 87.3 % NHEJ
- activity (SBS55287 ZFN): 74.8 % NHEJ

Sequence: TTGCTCTTGAAGTCCATAGACCTCATGT (double strand) [TCRA site of 55204]
- activity (SBS55204 ZFN): 87.7 % NHEJ
